Legend:
SfAPN4 = test: Yeast two-hybrid (Y2H) interaction with SfAPN4; format: binding, Spodoptera frugiperda; settings: Y2HGold yeast, quadruple dropout medium, FIG. 4B
Source text: DNA fragments shown in PGADT7::GhJAZ8 (SEQ ID No. 3), PGADT7::GhJAZ8^LGK (SEQ ID No. 25), PGADT7::GhJAZ13 (SEQ ID No. 8), PGADT7::GhJAZ14 (SEQ ID No. 10), PGADT7::GhJAZ24 (SEQ ID No. 12), PGADT7::GhJAZ27 (SEQ ID No. 14) and PGADT7::GhJAZ28 (SEQ ID No. 16) were inserted between the BamH1 and EcoR1 of a PGADT7 plasmid (Unibio Biotech, VT1639), respectively, to obtain pGADT7+GhJAZ8, pGADT7+GhJAZ8^LGK, pGADT7+GhJAZ13, pGADT7+GhJAZ14, pGADT7+GhJAZ24, pGADT7+GhJAZ27 and pGADT7+GhJAZ28.
The DNA fragment shown in PGBKT7: SfAPN4 (SEQ ID NO: 22) was inserted between BamH1 and EcoR1 of a pGBKT7 plasmid (Unibio Biotech, catalog number: VT1638), to obtain a vector plasmid, named pGBKT7+SfAPN4.
The mixture was centrifuged at 5000 rpm for 30 seconds to discard the supernatant, and the pellet was resuspended in ddH2O, coated on a double dropout medium (SD/-Leu/-Trp) and cultured at 28° C. for 2 days. After occurrence of the clonal plaques, the clones were selected and placed a quadruple dropout medium (SD Ade/-His/-Leu/-Trp, with Aba and X-α-gal added) and the interaction was observed after 4 days of culture at 28° C.

[1] = test system: cotton bollworm (Helicoverpa armigera); test: Feed film-covering bioassay, larval growth inhibition, cotton bollworm; format: in vivo; settings: protein on artificial feed, after 7 days, FIGS. 6D, 6F
Procedure: (§1) Treatment group: add the prepared insect feed (Henan Jiyuan Baiyun Industrial Co., Ltd., product name: Grassland armyworm artificial feed) to a 24 well plate, with a volume of 200 microliters per well; use a film covering method to add diluted GhJAZ8 protein solutions of different concentrations (diluted with PBS) to the surface of the feed, and shake in the incubator until the protein is immersed in the culture medium. Take grassland armyworm and cotton bollworm larvae that have not been fed within the first 12 hours of incubation as experimental subjects, and place them in a culture box, with each concentration of protein applied to 100 larvae. Set 16 replicates for each protein concentration and 3 parallel measurement groups for each dose. Control group: different from the experimental group, PBS solution was added to the surface of the feed using a film covering method, and the rest were the same. After 7 days, age and weight will be recorded for statistical analysis. [formula]

[2] = test system: fall armyworm (Spodoptera frugiperda); test: Feed film-covering bioassay, larval growth inhibition, fall armyworm; format: in vivo; settings: protein on artificial feed, after 7 days, FIGS. 6C, 6E
Procedure: as §1

[3] = test system: Sf9 ovarian cell line of Spodoptera frugiperda; format: cell-based
Source text: Using insect cell lines toxicity testing and mechanism of action research of insecticides, as a new detection method, has the advantages of good target homogeneity, easy control of experimental conditions, and low screening costs compared to traditional bioassay methods. It is suitable for toxicological research of insecticidally active substances. In recent years, scholars at home and abroad have conducted extensive research on the activity of plant natural active ingredients on insect cells, and have achieved many research results of the action mechanism of plant natural active ingredients on insect cells, showing a good correlation between experimental results and in vivo toxicity testing and field experiments.
Fluorescence staining experiment: toxic effect of GhJAZ protein on Sf9 cell line (CL-0205, Procell) was detected using a Calcein/PI Cell Viability and Cytotoxicity Detection kit (Catalogue No.: C2015L, Beyotime, China). The Calcein/PI Cell Activity and Cytotoxicity Detection Kit is a very convenient kit for detecting the viability of animal cells based on Calcein AM (Calcein AM) and PI (Propidium Iodide) dual fluorescence staining. The specific steps are as follows: Adherent cells were blown and transferred to a 15 mL EP tube, centrifuged at 860-870 rpm for 5 minutes. […] After 30 minutes of culture, fluorescence microscopy images were taken. […]

SfAPN4, sequence (as listed by the source): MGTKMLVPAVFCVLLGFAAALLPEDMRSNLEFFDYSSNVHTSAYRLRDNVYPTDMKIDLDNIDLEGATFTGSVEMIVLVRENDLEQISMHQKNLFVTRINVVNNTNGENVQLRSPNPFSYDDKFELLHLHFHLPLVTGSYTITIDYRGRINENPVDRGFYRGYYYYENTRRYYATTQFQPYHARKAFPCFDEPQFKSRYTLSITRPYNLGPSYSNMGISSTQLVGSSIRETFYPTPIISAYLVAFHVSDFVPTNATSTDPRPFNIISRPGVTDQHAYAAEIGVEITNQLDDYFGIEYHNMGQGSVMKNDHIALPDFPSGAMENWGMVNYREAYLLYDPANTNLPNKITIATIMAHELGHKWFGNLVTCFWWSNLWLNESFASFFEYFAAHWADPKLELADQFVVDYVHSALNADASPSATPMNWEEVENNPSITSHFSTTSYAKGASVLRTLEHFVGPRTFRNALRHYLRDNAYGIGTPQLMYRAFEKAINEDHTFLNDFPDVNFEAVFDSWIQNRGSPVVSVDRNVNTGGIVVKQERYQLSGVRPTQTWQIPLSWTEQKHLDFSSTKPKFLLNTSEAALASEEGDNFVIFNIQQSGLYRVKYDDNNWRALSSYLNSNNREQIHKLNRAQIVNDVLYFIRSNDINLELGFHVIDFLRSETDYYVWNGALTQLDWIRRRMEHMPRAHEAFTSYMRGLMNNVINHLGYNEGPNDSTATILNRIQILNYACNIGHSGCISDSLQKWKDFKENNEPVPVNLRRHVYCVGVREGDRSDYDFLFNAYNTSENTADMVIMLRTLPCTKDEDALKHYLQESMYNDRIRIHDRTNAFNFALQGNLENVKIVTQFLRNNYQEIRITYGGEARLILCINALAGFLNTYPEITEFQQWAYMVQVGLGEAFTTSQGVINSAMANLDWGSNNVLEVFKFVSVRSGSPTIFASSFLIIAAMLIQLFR

| Molecule | interaction with SfAPN4 (Y2H) (SfAPN4) | growth inhibition of cotton bollworm larvae [1] | growth inhibition of fall armyworm larvae [2] | cytotoxicity on Sf9 cells [3] |
| --- | --- | --- | --- | --- |
| GhJAZ8^LGK: GhJAZ8 with NGR domain mutated, N43G44R45 to L43G44K45, coding sequence SEQ ID No. 25 (protein) MRRNCNLELRLLPSSYPSDSHDMMEERIESPKTQQQQLTIFYLGKVCVSDVTELQAKAILMLANRERDERMKSPTGWEPVSPTLKSQVKCPNTALSMKRSLQRFLQKRKTRIQATSPYH | loses interaction | weakened | weakened | – |
| GhJAZ16: cotton JAZ protein, SEQ ID NO: 5, expressed from pET-30a-GhJAZ16 (protein) MERDFIGLRSKNAAITIKVEPSNAQPDDSVLLRGSGMQLSFSNKVSTVPQFLSFDGARDDKPRKATHDTLLSSGFMTIPAADSNKKPHPGLTQKQGGNHYAATTYGLQQLDGHQSRLSHEARIFPSSSQPNHTITVSMNTPLLQPHLASPGQNIIGHTINPQPFTGVPIMAAPVSVVPPSSPIIGTTDLRNAAKSSRAPAQLTIFYAGSVCVYDDVSPDKAQAIMLLAGNVSSTTQSKTAPVTQPQTHIPRPCTLSPFSGLPNHLSVTSHVSLQPVAGSSGTNELTAATRIGALASTNNQPDPPKLVNPAVAVPQARKASLARFLEKRKERVSNTSPYNICKRSESGPLASDGISFSVTSAGSSPLQAIN | – | – | – | certain cytotoxic effects |
| GhJAZ5: cotton JAZ protein, SEQ ID NO: 1, expressed in E. coli from pET-30a-GhJAZ5 (protein) MSSCSESTAMKPARSPEKPSFAQTCNLLSQYLKEKGSFGDLSLGMTCNVEANGTPVVPPPTMNLFPLNDKSDDVCGRNGGNPKNLTSMDLFPQQAGLASKDDSPNKLEPQTAPMTIFYGGQVIVFNDFPANKAKEIMLLASNSSSQSNNSFNPIPFTSSIARSPIESSIGVPPTSKPVHPAQRAVPGDLPIARRASLHRFLEKRKDRITAKAPYQINNSAAAPSLSGDNKSWLGLAAQSP | – | – | – | certain cytotoxic effects |

From patent publication US20250197882A1, “USE OF JAZ PROTEIN AND ITS DERIVATIVES IN AGRICULTURAL PEST PREVENTION AND CONTROL” (priority 2022, published 2025)
